Patent US20230159601A1 (SEOUL NATIONAL UNIVERSITY HOSPITAL, published 2023)

Target: T1, recombinant human proprotein convertase subtilisin/kexin type-9 (rhPCSK9) (human, UniProt Q8NBP7 31-692, limits assumed)
T1 construct: Elsewhere it is called His-rhPCSK9; also called recombinant hPCSK9; recombinant human PCSK9
Assay: surface plasmon resonance, direct binding analysis between rhPCSK9 and CAP1 (FIG. 1E)

T1 sequence (Q8NBP7 31-692 limits assumed): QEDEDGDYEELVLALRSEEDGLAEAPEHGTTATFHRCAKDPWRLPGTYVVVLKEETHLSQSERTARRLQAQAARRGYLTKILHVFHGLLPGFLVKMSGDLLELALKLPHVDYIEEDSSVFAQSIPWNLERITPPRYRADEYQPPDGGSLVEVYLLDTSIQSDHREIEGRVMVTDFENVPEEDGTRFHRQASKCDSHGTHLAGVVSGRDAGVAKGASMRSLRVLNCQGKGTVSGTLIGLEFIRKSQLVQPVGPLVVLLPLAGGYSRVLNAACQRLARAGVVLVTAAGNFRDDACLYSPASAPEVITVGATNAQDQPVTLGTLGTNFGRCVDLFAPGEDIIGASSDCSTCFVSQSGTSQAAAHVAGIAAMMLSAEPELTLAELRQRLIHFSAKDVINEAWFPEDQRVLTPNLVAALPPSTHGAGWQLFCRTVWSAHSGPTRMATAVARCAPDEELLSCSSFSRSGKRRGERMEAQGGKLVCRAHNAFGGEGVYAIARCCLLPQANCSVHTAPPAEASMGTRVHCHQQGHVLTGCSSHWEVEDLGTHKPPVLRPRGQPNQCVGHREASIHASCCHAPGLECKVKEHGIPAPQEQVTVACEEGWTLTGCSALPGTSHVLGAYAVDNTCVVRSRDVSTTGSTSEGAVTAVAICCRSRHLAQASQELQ

B1: human adenylyl cyclase-associated protein 1 (CAP1), wild type (other)
chain: MADMQNLVERLERAVGRLEAVSHTSDMHRGYADSPSKAGAAPYVQAFDSLLAGPVAEYLKISKEIGGDVQKHAEMVHTGLKLERALLVTASQCQQPAENKLSDLLAPISEQIKEVITFREKNRGSKLFNHLSAVSESIQALGWVAMAPKPGPYVKEMNDAAMFYTNRVLKEYKDVDKKHVDWVKAYLSIWTELQAYIKEFHTTGLAWSKTGPVAKELSGLPSGPSAGSGPPPPPPGPPPPPVSTSSGSDESASRSALFAQINQGESITHALKHVSDDMKTHKNPALKAQSGPVRSGPKPFSAPKPQTSPSPKRATKKEPAVLELEGKKWRVENQENVSNLVIEDTELKQVAYIYKCVNTTLQIKGKINSITVDNCKKLGLVFDDVVGIVEIINSKDVKVQVMGKVPTISINKTDGCHAYLSKNSLDCEIVSAKSSEMNVLIPTEGGDFNEFPVPEQFKTLWNGQKLVTTVTEIAG
notes: also called hCAP1; wtCAP1
B1 gave a Kd of 1010 nM.
